Assay [1] has as its target DENV-3 VLP (Dengue virus serotype 3). Briefly: BLI (Octet-HTX), IgG captured on Protein A biosensor, 5 ug/mL DENV-VLP.
Assay [2] shares this target. Briefly: BLI (Octet-HTX), IgG captured on Protein A biosensor, 5 ug/mL DENV-VLP, 1:1 model. On the technique in general: BLI is a label-free optical method that tracks binding on a fibre tip over time.

One substance from patent publication US20260070961A1 can be followed below.

Broadly, the koff is the first-order rate constant of dissociation. The low end stands for slow dissociation, the high end for fast dissociation. As for 4G2 (antibody), in assay [1], the response was found to be 0.316. In addition, in assay [2], the koff was 0.000345 s⁻¹.
